Measured values taken from patent US20200281934A1, “SSTR-TARGETED CONJUGATES AND FORMULATIONS THEREOF” (TARVEDA THERAPEUTICS, INC., priority 2017, published 2020).
Where two headings read alike, the source gives them in different places.

Legend:
Assay type in all cases: in vivo, human
[1] = tested on: somatostatin receptor 2 expressing advanced cancers; assay: Phase 1 preliminary anti-tumor activity (RECIST 1.1, duration of response)
Description: (§1) The objectives of Phase 1 were to assess the safety and tolerability and determine the maximum tolerated dose and recommended Phase 2 dose of Conjugate 57 when administered intravenously on an every 3 week schedule in patients with somatostatin receptor 2 expressing advanced cancers (including gastroenteropancreatic or lung or thymus or other neuroendocrine tumors or small cell lung cancer or large cell neuroendocrine carcinoma of the lung). It also characterized both acute and chronic toxicities of Conjugate 57, characterized key pharmacokinetic parameters of Conjugate 57, DM1, and peptide ligand from Conjugate 57, assessed the potential of Conjugate 57 to induce anti-drug antibodies, and assessed preliminary anti-tumor activity by using standard tumor response criteria (RECIST 1.1) and pharmacodynamic (PDc) biomarker changes that include chromogranin A (CgA), neuron-specific enolase (NSE), and circulating tumor cells (CTCs) in the blood, and 5-hydroxyindoleacetic acid (5-HIAA) in the urine. In addition, the study explored the relationships between tumor SSTR2 expression as measured by multiple modalities (somatostatin analog radioimaging, immunohistochemistry, CTCs, or exosome analyses) and PK, efficacy, safety, anti-Conjugate 57 antibodies, and PDc biomarker changes in the blood. Phase 1 study had two parts: Phase 1 Part A (dose escalation) and Phase 1 Part B (early expansion).
All patients were required to have SSTR2 expressing tumors. Tumor SSTR2 expression was determined by imaging within the preceding approximately 6 months, with Octreoscan or ^68Ga-DOTATATE, ^68Ga-DOTATOC, or ^68Ga-DOTANOC.
The acetate salt of Conjugate 57 was administered to a patient as a 1 hour IV infusion once on an every 3 week schedule to escalating cohorts of 2-6 patients. Patients received Conjugate 57 treatment for 3 weeks, 6 weeks, 9 weeks, 12 weeks, 15 weeks, 18 weeks, 21 weeks, 24 weeks, 27 weeks, 30 weeks, 33 weeks, 36 weeks, 39 weeks, 42 weeks, 45 weeks, 48 weeks, 51 weeks, 54 weeks, 57 weeks, or 60 weeks. There were 7 Cohorts with the starting does of 1.0 mg and the highest dose of 25.0 mg. The doses of Conjugate 57 given to pateints were flat: 1.0 mg, 2.0 mg, 4.0 mg, 8.0 mg, 12.0 mg, 18.0 mg and 25.0 mg. Conjugate 57 concentrate for Solution for Injection is a sterile concentrated liquid containing Conjugate 57, mannitol, Polyoxyl 15 Hydroxystearate and acetate buffer. Each dosage unit contains 2.5 mg of Conjugate 57 (free-form) per mL, 50 mg/mL mannitol, 20 mg/mL Polyoxyl 15 Hydroxystearate and pH 4.0-4.8 acetate buffer in a stoppered 10 mL clear vial. Prior to administration, the product was diluted with 5% Mannitol Injection USP. […]
(§2) Disease response was assessed by duration of response and RECIST 1.1. […]

[2] = Phase 1 safety, tolerability and maximum tolerated dose; conditions: patients
Description: as §1, with “Phase 1 study had two parts: Phase 1 Part A (dose escalation) and Phase 1 Part B (early expansion).” left out
as §2

GI (large bowel) NET = assay: Circulating biomarkers of neuroendocrine tumors and symptoms in a GI NET patient; conditions: 18 mg
Description: as §1
A patient with well differentiated, intermediate grade GI (large bowel) NET with metastasis to lymph nodes, bone, lung, and brain was treated with Conjugate 57 at 18 mg. Their tumors progressed on all prior therapies: lanreotide, mTOR inhibitor, and/or 177Lu-DOTATATE. […] Circulating biomarkers of neuroendocrine tumors (NETs), including chromogranin A (CgA), neuron specific enolase (NSE) and circulating tumor cells (CTC), were collected and measured over time. Increased CgA is predictive of poor morphological response, progression free survival (PFS), and overall survival (OS) in pancreatic NETs. Decline in plasma concentration of NSE has been associated with response to treatment. Changes in CTCs has been associated with response to treatment in patients with NETs.

[3] = Phase 1 plasma pharmacokinetics of Conjugate 57 during dose escalation; conditions: for AUC(0-inf) / Cmax / clearance / Vd: mean, 1 hour IV infusion; for Vd: read-out: Vz
Procedure: The acetate salt of Conjugate 57 was administered to a patient as a 1 hour IV infusion once on an every 3 week schedule to escalating cohorts of 2-6 patients. Patients received Conjugate 57 treatment for 3 weeks, 6 weeks, 9 weeks, 12 weeks, 15 weeks, 18 weeks, 21 weeks, 24 weeks, 27 weeks, 30 weeks, 33 weeks, 36 weeks, 39 weeks, 42 weeks, 45 weeks, 48 weeks, 51 weeks, 54 weeks, 57 weeks, or 60 weeks. There were 7 Cohorts with the starting does of 1.0 mg and the highest dose of 25.0 mg. The doses of Conjugate 57 given to pateints were flat: 1.0 mg, 2.0 mg, 4.0 mg, 8.0 mg, 12.0 mg, 18.0 mg and 25.0 mg. Conjugate 57 concentrate for Solution for Injection is a sterile concentrated liquid containing Conjugate 57, mannitol, Polyoxyl 15 Hydroxystearate and acetate buffer. Each dosage unit contains 2.5 mg of Conjugate 57 (free-form) per mL, 50 mg/mL mannitol, 20 mg/mL Polyoxyl 15 Hydroxystearate and pH 4.0-4.8 acetate buffer in a stoppered 10 mL clear vial. Prior to administration, the product was diluted with 5% Mannitol Injection USP. The resulting diluted Conjugate 57 formulation can be infused intravenously.
Serial PK samples were collected prior, during and up to 10 hours after the start of infusion on Day 1 of Cycle 1 and Cycle 3.
Cmax is the maximum (or peak) serum concentration of a drug after the drug has been administrated and before the administration of a second dose. Area under curve to infinity (AUCinf) is a is a theoretical measure of the total exposure of drug to the body from administration till all the drug is eliminated. Clearance (CL) is the volume of plasma cleared of drug per unit time. It is an index of how well a drug is removed irreversibly from circulation. Volume of distribution (Vz) was also measured. Vz represents the degree to which a drug is distributed in body tissue rather than the plasma.

[4] = human, plasma, patients, dose 1 mg
[5] = human, plasma, patients, dose 2 mg
[6] = human, plasma, patients, dose 4 mg
[7] = human, plasma, patients, dose 8 mg
[8] = human, plasma, patients, dose 12 mg
[9] = human, plasma, patients, dose 18 mg
[10] = human, plasma, patients, dose 25 mg

COc1cc2cc(c1Cl)N(C)C(=O)C[C@H](OC(=O)[C@H](C)N(C)C(=O)CCSSC[C@H](NC(=O)[C@@H]1CSSC[C@H](NC(=O)[C@H](N)Cc3ccccc3)C(=O)N[C@@H](Cc3ccc(O)cc3)C(=O)N[C@H](Cc3c[nH]c4ccccc34)C(=O)N[C@@H](CCCCN)C(=O)N[C@@H]([C@@H](C)O)C(=O)N1)C(N)=O)[C@]1(C)O[C@H]1[C@H](C)[C@@H]1C[C@@](O)(NC(=O)O1)[C@H](OC)/C=C/C=C(\C)C2 [Conjugate 57]
ongoing patients with SD for 44 and 45 weeks ([1]; NET patients): 2 patients
patients with stable disease (SD) at 9 weeks ([1]; among 15 NET patients evaluable for response): 11 patients
patients with target lesion shrinkage ([1]; dose range 8-18 mg): 3 patients
patients with SD sustained for 18-45 weeks ([1]; of the 11 NET patients with SD at 9 weeks): 8 patients
tolerability ([2]; 1.0-25.0 mg IV every 3 weeks): well tolerated
maximum tolerated dose (MTD) ([2]; IV infusion every 3 weeks, flat dose): 18 mg
disease related symptoms of flushing (GI (large bowel) NET): disappeared after first dose
chromogranin A (CgA) level (GI (large bowel) NET; FIG. 2A): decreased over time
neuron specific enolase (NSE) level (GI (large bowel) NET; FIG. 2B): decreased over time
circulating tumor cells (CTC) level (GI (large bowel) NET; FIG. 2C): decreased over time
AUCinf relative to efficacious exposure threshold seen in pre-clinical xenograft studies of SCLC models ([3]; 12 mg and higher dose cohorts): above efficacious exposure threshold
half-life ([3]; human, intravenous, plasma, patients, across all dose cohorts, read-out: Median t½ (half-life) (converted)): 1.7 h
AUC(0-inf) [3, 4]: 0.0146 µM·h
Cmax [3, 4]: 7.47 nM
clearance [3, 4]: 633 mL/min
Vd [3, 4]: 65 L
AUC(0-inf) [3, 5]: 0.0379 µM·h
Cmax [3, 5]: 20.5 nM
clearance [3, 5]: 583 mL/min
Vd [3, 5]: 80 L
AUC(0-inf) [3, 6]: 0.118 µM·h
Cmax [3, 6]: 74.3 nM
clearance [3, 6]: 333 mL/min
Vd [3, 6]: 60 L
AUC(0-inf) [3, 7]: 0.341 µM·h
Cmax [3, 7]: 186 nM
clearance [3, 7]: 250 mL/min
Vd [3, 7]: 37 L
AUC(0-inf) [3, 8]: 0.584 µM·h
Cmax [3, 8]: 293 nM
clearance [3, 8]: 217 mL/min
Vd [3, 8]: 33 L
AUC(0-inf) [3, 9]: 0.666 µM·h
Cmax [3, 9]: 381 nM
clearance [3, 9]: 267 mL/min
Vd [3, 9]: 36 L
AUC(0-inf) [3, 10]: 1.31 µM·h
Cmax [3, 10]: 741 nM
clearance [3, 10]: 183 mL/min
Vd [3, 10]: 50 L
